# Source: US20090304754
# T1: 26mer peptide derived from gamma-gliadin
# T1 chain: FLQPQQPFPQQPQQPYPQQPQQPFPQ
# B1: Flavobacterium meningosepticum prolyl endopeptidase, unmodified (protein)
# chain: QNSNVLKYPETKKVSHTDTYFGTQVSDPYRWLEDDRAEDTKAWVQQEVKFTQDYLAQIPFRDQLKKQLMDIWNYEKISAPFKKGKYTYFSKNDGLQAQSVLYRKDAAGKTEVFLDPNKFSEKGTTSLASVSFNKKGTLVAYSISEGGSDWNKIIILDAETKKQLDETLLDVKFSGISWLGDEGFFYSSYDKPKEGSVLSGMTDKHKVYFHKLGTKQSQDELIIGGDKFPRRYIGAYVTDDQRYLVVSAANATNGNELYIKDLKNKTDFIPIITGFDSNVNVADTDGDTLYLFTDKDAPNKRLVKTTIQNPKAETWKDVIAETSEPLEINTGGGYFFATYMKDAIDQVKQYDKNGKLVRAIKLPGSGNASGFGGEKTEKDLYYSFTNYITPPTIFKYNVTTGNSEVYQKPKVKFNPENYVSEQVFYTSSDGTKIPMMISYKKGLKKDGKNPTILYSYGGFNISLQPAFSVVNAIWMENGGIYAVPNIRGGGEYGKKWHDAGTKMQKKNVFNDFIAAGEYLQKNGYTSKEYMALSGRSNGGLLVGATMTMRPDLAKVAFPGVGVLDMLRYNKFTAGAGWAYDYGTAEDSKEMFEYLKSYSPVHNVKAGTCYPSTMVITSDHDDRVVPAHSFKFGSELQAKQSCKNPILIRIETNAGHGAGRSTEQVVAENADLLSFALYEMGIKSLK
# B2: Flavobacterium meningosepticum prolyl endopeptidase conjugated with 5000 Da PEG (protein)
# chain: B1 chain
# B3: Flavobacterium meningosepticum prolyl endopeptidase conjugated with 20,000 Da PEG (protein)
# chain: B1 chain
# What was measured:
# [1] = target: Flavobacterium meningosepticum prolyl endopeptidase, unmodified (UniProt P27028)
# [2] = target: Flavobacterium meningosepticum prolyl endopeptidase conjugated with 20,000 Da PEG (UniProt P27028)
# [3] = target: T1, 26mer peptide derived from gamma-gliadin
molecule,measurement,setting,value
chymotrypsin,"kcat/KM of chymotrypsin-catalyzed proteolysis of FM PEP (loss of PEP activity, Michaelis-Menten fit)",[1],The chymotrypsin proteolysis exhibited a kcat/KM of 5.0 for the unmodified PEP
trypsin,"kcat/KM of trypsin-catalyzed proteolysis of FM PEP (loss of PEP activity, Michaelis-Menten fit)",[2],a kcat/KM of 3.4 was obtained for the PEGylated PEP
same,"kcat/KM of trypsin-catalyzed proteolysis of FM PEP (loss of PEP activity, Michaelis-Menten fit)",[1],a kcat/KM of 11.7 M^-1 sec-1 was obtained for unmodified PEP
B1,"time course of cleavage of the 26mer peptide, HPLC",[3],PEGylated enzymes are able to cleave longer substrates at rates comparable to unmodified enzyme
B2,"time course of cleavage of the 26mer peptide, HPLC (disappearance of the intact 26mer peak)",[3],both the 5 kDa and 20 kDa PEGylated FM PEPs were 8-12% faster in cleaving the peptide than the unmodified FM PEP
B3,"time course of cleavage of the 26mer peptide, HPLC (disappearance of the intact 26mer peak)",[3],both the 5 kDa and 20 kDa PEGylated FM PEPs were 8-12% faster in cleaving the peptide than the unmodified FM PEP
